In paper PMC9838878 (Science (New York, N.Y.), 2022):

Biological target: recombinant KIT-extracellular domain-Fc fragment fusion protein (KIT-ECD-Fc) (human, UniProt P10721 26-524)
Test: MST

Sequence of recombinant KIT-extracellular domain-Fc fragment fusion protein (KIT-ECD-Fc) (P10721 26-524): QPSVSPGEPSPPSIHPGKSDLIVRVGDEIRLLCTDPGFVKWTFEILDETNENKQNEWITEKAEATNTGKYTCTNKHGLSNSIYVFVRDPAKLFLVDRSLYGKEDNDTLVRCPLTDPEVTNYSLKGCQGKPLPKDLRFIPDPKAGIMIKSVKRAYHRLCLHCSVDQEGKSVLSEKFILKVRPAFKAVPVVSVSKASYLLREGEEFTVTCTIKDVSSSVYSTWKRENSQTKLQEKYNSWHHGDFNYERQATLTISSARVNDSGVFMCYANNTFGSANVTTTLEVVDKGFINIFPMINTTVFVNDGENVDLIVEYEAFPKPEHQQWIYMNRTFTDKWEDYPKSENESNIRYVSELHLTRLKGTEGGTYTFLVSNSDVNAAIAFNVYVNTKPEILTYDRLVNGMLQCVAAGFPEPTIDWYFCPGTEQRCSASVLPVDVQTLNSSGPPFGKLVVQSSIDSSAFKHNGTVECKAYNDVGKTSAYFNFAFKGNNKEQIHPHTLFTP

- binding result: binds
B1: meteorin-like (METRNL), protein added as ligand (ligand, human, UniProt Q641Q3 46-311, looked up)
chain: QYSSDRCSWKGSGLTHEAHRKEVEQVYLRCAAGAVEWMYPTGALIVNLRPNTFSPARHLTVCIRSFTDSSGANIYLEKTGELRLLVPDGDGRPGRVQCFGLEQGGLFVEATPQQDIGRRTTGFQYELVRRHRASDLHELSAPCRPCSDTEVLLAVCTSDFAVRGSIQQVTHEPERQDSAIHLRVSRLYRQKSRVFEPVPEGDGHWQGRVRTLLECGVRPGHGDFLFTGHMHFGEARLGCAPRFKDFQRMYRDAQERGLNPCEVGTD
